From article PMC5630700 (Frontiers in Immunology, 2017) come the findings set out here.

This test deals with MARV Musoke NP tagged with FLAG at the N-terminus and His6 at the C-terminus (Wt) (Marburg virus Musoke-80, UniProt P27588). The test is described as follows: far-Western, overlay or dot blot. Conditions: one partner purified.
MARV Musoke NP tagged with FLAG at the N-terminus and His6 at the C-terminus (Wt), sequence (P27588 whole entry): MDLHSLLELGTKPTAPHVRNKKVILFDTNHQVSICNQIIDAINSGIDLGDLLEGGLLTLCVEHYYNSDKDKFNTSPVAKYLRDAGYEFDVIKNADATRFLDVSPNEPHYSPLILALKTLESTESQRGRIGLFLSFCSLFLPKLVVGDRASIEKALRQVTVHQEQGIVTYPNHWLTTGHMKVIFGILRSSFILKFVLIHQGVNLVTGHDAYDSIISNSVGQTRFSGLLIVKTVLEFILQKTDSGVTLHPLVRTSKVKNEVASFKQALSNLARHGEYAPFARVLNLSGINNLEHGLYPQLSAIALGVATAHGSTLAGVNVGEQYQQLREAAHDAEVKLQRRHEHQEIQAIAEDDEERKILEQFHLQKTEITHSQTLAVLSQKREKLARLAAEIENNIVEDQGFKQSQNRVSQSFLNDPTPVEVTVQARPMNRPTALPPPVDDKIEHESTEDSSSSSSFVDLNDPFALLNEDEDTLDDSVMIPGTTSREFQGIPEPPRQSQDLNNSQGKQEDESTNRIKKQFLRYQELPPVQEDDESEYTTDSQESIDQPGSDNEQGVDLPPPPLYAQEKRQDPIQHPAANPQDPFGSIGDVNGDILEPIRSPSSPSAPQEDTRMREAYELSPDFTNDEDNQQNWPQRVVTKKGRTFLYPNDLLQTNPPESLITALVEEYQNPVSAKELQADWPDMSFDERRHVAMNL

B1: sdAb D–alkaline phosphatase fusion protein (pecan16) (VHH)
VHH: KVKLQESGGGTVQAGGSLRLSCKASGFTFRSSAMGWYRRAPGQHRIFVGSFSRNEFKYADFAQGRFTISRDNAKNTVSLQMNHVIPEDTAVYYCHEDPYGMESLRYWGQGTQVTVSS
Regarding B1, the binding result is listed as “binds”.
